Assay results reported in US20220162331A1 (CHENGDU CONMED BIOSCIENCES, published 2022).
Like-named read-outs stand apart in the source and are kept apart here.

T1: human full-length CD73 on hCD73-CHO-1C11 cells (human, UniProt P21589 27-549)
T1 construct: it may be a nucleotide entry; also called CHO-CD73-1C11
T1 sequence: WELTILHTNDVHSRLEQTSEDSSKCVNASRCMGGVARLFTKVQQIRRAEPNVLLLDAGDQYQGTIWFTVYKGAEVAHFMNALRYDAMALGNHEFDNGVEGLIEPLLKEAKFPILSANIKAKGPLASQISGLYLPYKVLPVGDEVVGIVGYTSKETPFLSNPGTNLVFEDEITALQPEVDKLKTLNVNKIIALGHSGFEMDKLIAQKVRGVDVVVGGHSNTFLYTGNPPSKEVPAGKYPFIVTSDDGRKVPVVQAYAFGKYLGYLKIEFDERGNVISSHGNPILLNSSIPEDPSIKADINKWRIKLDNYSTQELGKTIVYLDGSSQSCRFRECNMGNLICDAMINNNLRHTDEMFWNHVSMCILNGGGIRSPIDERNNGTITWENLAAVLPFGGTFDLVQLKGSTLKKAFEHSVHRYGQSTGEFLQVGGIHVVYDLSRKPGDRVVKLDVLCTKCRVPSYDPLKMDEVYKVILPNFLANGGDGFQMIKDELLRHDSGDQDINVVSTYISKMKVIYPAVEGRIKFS

T2: recombinant human CD73 extracellular domain (Trp27-Lys546) with C-terminal 6-histidine tag (human, UniProt P21589 27-547)
T2 construct: also called hCD73; hCD73-cHis
T2 sequence: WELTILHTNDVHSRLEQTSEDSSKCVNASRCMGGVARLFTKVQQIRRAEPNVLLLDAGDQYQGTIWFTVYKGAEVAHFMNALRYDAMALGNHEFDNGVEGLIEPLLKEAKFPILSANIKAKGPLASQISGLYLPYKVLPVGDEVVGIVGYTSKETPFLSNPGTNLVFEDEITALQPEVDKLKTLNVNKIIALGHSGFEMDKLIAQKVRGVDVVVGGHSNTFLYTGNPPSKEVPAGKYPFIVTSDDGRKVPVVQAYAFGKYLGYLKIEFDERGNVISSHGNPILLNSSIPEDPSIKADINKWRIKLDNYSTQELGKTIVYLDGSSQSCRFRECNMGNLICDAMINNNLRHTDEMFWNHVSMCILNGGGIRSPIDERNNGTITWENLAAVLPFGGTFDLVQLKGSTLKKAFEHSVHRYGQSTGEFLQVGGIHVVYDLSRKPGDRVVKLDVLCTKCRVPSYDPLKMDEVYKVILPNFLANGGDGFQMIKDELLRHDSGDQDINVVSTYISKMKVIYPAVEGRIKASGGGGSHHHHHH

T3: recombinant cynomolgus monkey CD73 extracellular domain (Trp27-Lys546) (cynomolgus monkey, UniProt P21589 27-547 (human entry))
T3 construct: also called cynoCD73; recombinant monkey CD73 extracellular domain
T3 chain: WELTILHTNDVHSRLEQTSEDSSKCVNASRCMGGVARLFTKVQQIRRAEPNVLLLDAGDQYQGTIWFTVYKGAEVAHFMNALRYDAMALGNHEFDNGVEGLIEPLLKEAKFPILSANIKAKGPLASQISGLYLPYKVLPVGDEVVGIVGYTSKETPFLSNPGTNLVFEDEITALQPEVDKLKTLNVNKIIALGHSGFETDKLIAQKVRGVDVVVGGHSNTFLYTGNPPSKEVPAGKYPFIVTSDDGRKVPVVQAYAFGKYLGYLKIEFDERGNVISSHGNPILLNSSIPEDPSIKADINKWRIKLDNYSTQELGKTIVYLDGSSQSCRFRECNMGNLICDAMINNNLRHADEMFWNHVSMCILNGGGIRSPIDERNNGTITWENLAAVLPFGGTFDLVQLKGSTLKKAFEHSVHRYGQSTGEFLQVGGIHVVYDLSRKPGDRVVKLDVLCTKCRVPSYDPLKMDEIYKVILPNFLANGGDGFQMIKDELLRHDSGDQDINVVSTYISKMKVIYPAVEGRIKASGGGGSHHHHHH

T4: human CD73 on Calu6 cells (human, UniProt P21589 27-549)
T4 construct: whole, on cells; Endogenous CD73 of the Calu6 cell line; also called CD73 on cell membrane surface
T4 sequence (looked up): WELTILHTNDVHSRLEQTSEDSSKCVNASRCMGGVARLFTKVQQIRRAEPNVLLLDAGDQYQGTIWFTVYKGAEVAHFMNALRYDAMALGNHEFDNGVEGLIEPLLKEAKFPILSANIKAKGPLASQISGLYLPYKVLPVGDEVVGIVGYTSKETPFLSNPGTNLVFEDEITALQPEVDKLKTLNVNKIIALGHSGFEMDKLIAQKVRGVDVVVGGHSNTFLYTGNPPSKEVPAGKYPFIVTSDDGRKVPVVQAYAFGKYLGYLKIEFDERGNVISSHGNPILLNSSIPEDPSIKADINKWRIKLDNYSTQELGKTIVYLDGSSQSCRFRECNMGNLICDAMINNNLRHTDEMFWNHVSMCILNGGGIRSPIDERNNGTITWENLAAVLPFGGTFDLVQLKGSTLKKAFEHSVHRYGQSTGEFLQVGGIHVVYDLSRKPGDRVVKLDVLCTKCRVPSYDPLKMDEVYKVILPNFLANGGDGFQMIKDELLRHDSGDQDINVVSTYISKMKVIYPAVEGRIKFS


Key:
[1] = target: T1, human full-length CD73 on …; assay: FACS on CHO-CD73-1C11 cells
[2] = target: T2, recombinant human CD73 extracellular …; assay: ELISA, plate coated with recombinant CD73 extracellular domain
[3] = target: T3, recombinant cynomolgus monkey CD73 …; assay: as above
[4] = target: T4, human CD73 on Calu6 cells; assay: FACS on Calu6 cells
[5] = target: T4, human CD73 on Calu6 cells; assay: cell-based or functional assay
[6] = target: T4, human CD73 on Calu6 cells; assay: cell-based or functional assay; remark: listed apart in the source
[7] = target: T2, recombinant human CD73 extracellular …; assay: SPR, Biacore T200, antibody captured on Protein A chip, hCD73 ECD as analyte, 1:1 Langmuir
Protocol: The affinity of CD73 antibody was determined by plasma surface resonance on Biacore T200. At room temperature, the antibody concentration was diluted to 0.5 μg/mL with 1×HBS-EP buffer (prepared from HBS-EP+Buffer 10×, GE, BR1008-26), the Protein A chip (GE, 29-1275-56) was coated with a flow rate of 10 μL per minute, the capture time was about 40 seconds, and the coated RU value was controlled to be about 100 RU. The recombinant human CD73 extracellular domain protein was diluted to 3 μg/mL with 1×HBS-EP buffer, diluted to two-fold gradient, a total of 6 concentrations, 200 μL of each concentration gradient. The 1×HBS-EP buffer was used as a control, the flow rate was 30 μl/min, the binding time was 120 seconds, and the dissociation time was 600 seconds. The affinity was fitted using Langmuir 1:1 Kinetic theoretical model and analyzed by Biacore T200 Evaluation Software (Table 3).

[8] = target: T2, recombinant human CD73 extracellular …; assay: cell-based or functional assay
[9] = target: T4, human CD73 on Calu6 cells; assay: cell-based or functional assay; remark: listed apart in the source
[10] = target: T4, human CD73 on Calu6 cells; assay: cell-based or functional assay; remark: listed apart in the source

Binder	EC50 [1]	EC50 [2]	EC50 [3]	EC50 [4]	CD73 endocytosis ratio %, 30 minutes [5]	CD73 endocytosis ratio %, 60 minutes [5]	CD73 endocytosis ratio %, 240 minutes [5]	CD73 endocytosis ratio %, 480 minutes [5]	Inhibition of CD73 enzyme activity IC50(nM), Calu6 [6]	Kd [7]	koff [7]	kon [7]	CD73 endocytosis ratio %, 120 minutes [5]	other results
CD73 antibody 7E10 (antibody, V domains shown, Mouse variable regions on human IgG heavy chain constant region and human kappa constant region (chimeric IgG); also called Clone 7E10) VH: QVQFQQSGAELVRPGASVKLSCKASGYIFSSYWIQWVKQRPGQGLEWIGAIYPGDGDTRYTQKFKDKATLTADKSSSTAYMQLSSLASEDSAVYYCAGFASWGQGTLVTVSA VL: DIQMTQSPSSLSASLGERVSLTCRASQDIGSSLNWLQQEPNGTIKRLIYATSSLDSGVPKRFSGSRSGSDYSLTISSLESEDFADYYCLQYASSPYTFGGGTKLEIK	8.59 nM	0.07 nM	0.11 nM	2.52 nM	9.9%	25.1%	6.6%	6.2%	7.66 nM	–	–	–	–	–
CD73 antibody 14H10 (antibody, V domains shown, Mouse variable regions on human IgG heavy chain constant region and human kappa constant region (chimeric IgG)) VH: QIQLQQSGAELARPGASVNLSCKASGYSFTSYWMQWLKQRPGQGLEWIGAIYPGDGDTRYTQKFKGKATLTADKSSSTAYMQLSSLASEDSAVYYCALFSYWGQGTLVTVSA VL: DIQMTQSPSSLSASLGERVSLTCRASQDIGSSLNWLQQEPDGTFKRLIYATSTLDSGVPKRFSGSRSGSDYSLTISSLESEDFVDYYCLQYASFPYTFGGGTKLEIK	2.62 nM	0.03 nM	0.07 nM	2.28 nM	–	33.1%	–	–	1.71 nM	–	–	–	–	–
CD73 antibody 6G8 (chimeric) (antibody, V domains shown, Mouse variable regions on human IgG heavy chain constant region and human kappa constant region (chimeric IgG); also called Clone 6G8; 6G8 Chimera) VH: QVTLKESGPGILKPSQTLSLTCSFSGFSLNTSGMGVGWIRQPSGKGLEWLAHIWWDDDKYYNPSLKSQLTISKDTSRNQVFLRIASVDTADTATYYCARRERWAWFAYWGQGTLVTVSA VL: DIVMTQSQKFMSASVGDRVSVTCKASQNVFTNVAWYQQKPGQSPKVLIYSASYRYSGVPDRFTGSGSGTDFTLTINNVQSEDLAEYFCQQYNSYPTFGSGTKLEIK	1.91 nM	0.02 nM	0.02 nM	1.03 nM	17.1%	38.5%	35.3%	47.7%	1.72 nM	0.18 nM	0.000111 s⁻¹	617000 M⁻¹ s⁻¹	22.2%	Inhibition of CD73 enzyme activity IC50(nM), Soluble CD73 [8]: 1.03 nM
humanized anti-CD73 antibody 6G8 VH-v8/VK-v4 (antibody, V domains shown, Human IgG1 CH1-CH3 constant region and kappa constant region; also called hu6G8 VHv8 + hu6G8 VkV4) VH: QVTLRESGPALVKPTQTLTLTCTFSGFSLSTSGMGVGWIRQPPGKALEWLAHIWWDEDKYYNPSLKSRLTISKDTSKNQVVLTMTNMDPVDTATYYCARRERWAWFAYWGQGTLVTVSS VL: EIVMTQSPATLSVSPGERATLSCRASQNVFTNVAWYQQKPGQAPRVLIYSASYRYSGIPARFSGSGSGTEFTLTISSLQSEDFAVYFCQQYNSYPTFGQGTKLEIK	–	–	–	–	–	–	–	–	–	0.257 nM	8.48e-05 s⁻¹	330000 M⁻¹ s⁻¹	–	CD73 endocytosis ratio %, 0 minute [9]: 0%; CD73 endocytosis ratio %, 30 minutes [9]: 28%; CD73 endocytosis ratio %, 120 minutes [9]: 37%; CD73 endocytosis ratio %, 240 minutes [9]: 46%
CD73 antibody 22C12 (antibody, V domains shown, Mouse variable regions on human IgG heavy chain constant region and human kappa constant region (chimeric IgG); also called Clone 22C12; mAb22C12) VH: QVQFQQSGAELARPGASVKLSCKASGYTFTGYWIQWVKQRPGQGLEWIGAIYPGDDDTRYTQKFKGRATLTADTSSSTAYMQLSSLASEDSAVYYCARGNWDDWDFDVWGAGTTVTVSS VL: DIQMTQTTSSLSASLGDRVTISCRASQDISNYLNWYQQKPDGTVKLLIHYTSRLHSGVPSRFSGSGSGTDYSLTISNLEQEDIATYFCQQGDTLPWTFGGGTKLEIK	1.43 nM	0.04 nM	0.05 nM	1.2 nM	–	6.1%	–	13.2%	0.97 nM	–	–	–	11.1%	–
control antibody 11F11-huG1 (antibody, from another filing, human IgG1, V domains shown) VH: QVQLVESGGGVVQPGRSLRLSCATSGFTFSNYGMHWVRQAPGKGLEWVAVILYDGSNKYYPDSVKGRFTISRDNSKNTLYLQMNSLRAEDTAVYYCARGGSSWYPDSFDIWGQGTMVTVSS VL: DIQMTQSPSSLSASVGDRVTITCRASQGISSWLAWYQQKPEKAPKSLIYAASSLQSGVPSRFSGSGSGTDFTLTISSLQPEDFATYYCQQYNSYPLTFGGGTKVEIKR	–	–	–	–	–	–	–	–	–	–	–	–	–	CD73 endocytosis ratio %, 0 minute [10]: 0%; CD73 endocytosis ratio %, 30 minutes [10]: 28%; CD73 endocytosis ratio %, 120 minutes [10]: 31%; CD73 endocytosis ratio %, 240 minutes [10]: 46%
